According to US11510965B2, “Vesicles comprising epidermal growth factor and compositions thereof” (Centro de Ingeniería Genética y Biotecnología, priority 2012, dated 2022):

System: acute lung injury induced by LPS-zymosan
Experiment: Lethal model of acute lung injury (ALI) / ARDS in rats (LPS-zymosan)
Type: in vivo, Sprague Dawley rats
Experimental: Male Sprague Dawley rats with body weight between 250 and 280 grams were used. Lung injury was induced under general anesthesia (ketamine/xylazine) by intratracheal instillation of a combination of lipopolysaccharide (LPS)-zymosan. Immediately afterwards, the animals were randomly assigned to three experimental groups of 12 animals each.
The animals were allowed to evolve without any treatment until the onset of the first symptoms.
Therefore, treatments were begun approximately 8 hours after the toxins were instilled. The experiment was aimed at evaluating the effect of treatment with both EGF formulations solely on the acute phase of ARDS. The treatments were performed by orofacial mask adapted from a volatile anesthesia machine. Treatments were performed twice daily. The animals were also treated once a day with hydrocortisone acetate (10 mg/kg) as coadjuvant treatment.
After 72 hours of treatment onset, the study was stopped. Surviving animals were anesthetized and subjected to deep bronchoalveolar lavage in 5 ml of sterile saline for cytological and biochemical study, as well as arterial blood sampling for determination of blood gas parameters. Then the lungs were insufflated with 10 ml of 10% neutral formalin and processed for histology.

[1] = arterial blood, survivors at 72 hours
[2] = bronchoalveolar lavage, survivors at 72 hours

B1: EGF in physiological saline: spray of EGF (Epidermal Growth Factor) in physiological saline at 25 μg/ml/kg (protein, UniProt P01133 23-1207, looked up)
Pro-epidermal growth factor: PQHWSCPEGTLAGNGNSTCVGPAPFLIFSHGNSIFRIDTEGTNYEQLVVDAGVSVIMDFHYNEKRIYWVDLERQLLQRVFLNGSRQERVCNIEKNVSGMAINWINEEVIWSNQQEGIITVTDMKGNNSHILLSALKYPANVAVDPVERFIFWSSEVAGSLYRADLDGVGVKALLETSEKITAVSLDVLDKRLFWIQYNREGSNSLICSCDYDGGSVHISKHPTQHNLFAMSLFGDRIFYSTWKMKTIWIANKHTGKDMVRINLHSSFVPLGELKVVHPLAQPKAEDDTWEPEQKLCKLRKGNCSSTVCGQDLQSHLCMCAEGYALSRDRKYCEDVNECAFWNHGCTLGCKNTPGSYYCTCPVGFVLLPDGKRCHQLVSCPRNVSECSHDCVLTSEGPLCFCPEGSVLERDGKTCSGCSSPDNGGCSQLCVPLSPVSWECDCFPGYDLQLDEKSCAASGPQPFLLFANSQDIRHMHFDGTDYGTLLSQQMGMVYALDHDPVENKIYFAHTALKWIERANMDGSQRERLIEEGVDVPEGLAVDWIGRRFYWTDRGKSLIGRSDLNGKRSKIITKENISQPRGIAVHPMAKRLFWTDTGINPRIESSSLQGLGRLVIASSDLIWPSGITIDFLTDKLYWCDAKQSVIEMANLDGSKRRRLTQNDVGHPFAVAVFEDYVWFSDWAMPSVMRVNKRTGKDRVRLQGSMLKPSSLVVVHPLAKPGADPCLYQNGGCEHICKKRLGTAWCSCREGFMKASDGKTCLALDGHQLLAGGEVDLKNQVTPLDILSKTRVSEDNITESQHMLVAEIMVSDQDDCAPVGCSMYARCISEGEDATCQCLKGFAGDGKLCSDIDECEMGVPVCPPASSKCINTEGGYVCRCSEGYQGDGIHCLDIDECQLGEHSCGENASCTNTEGGYTCMCAGRLSEPGLICPDSTPPPHLREDDHHYSVRNSDSECPLSHDGYCLHDGVCMYIEALDKYACNCVVGYIGERCQYRDLKWWELRHAGHGQQQKVIVVAVCVVVLVMLLLLSLWGAHYYRTQKLLSKNPKNPYEESSRDVRSRRPADTEDGMSSCPQPWFVVIKEHQDLKNGGQPVAGEDGQAADGSMQPTSWRQEPQLCGMGTEQGCWIPVSSDKGSCPQVMERSFHMPSYGTQTLEGGVEKPHSLLSANPLWQQRALDPPHQMELTQ
modifications: Pro-epidermal growth factor
notes: spray of EGF (Epidermal Growth Factor) in physiological saline at 25 μg/ml/kg
- Death total (12 animals per group, 72 hours): 5
- Death total (percent) (12 animals per group, 72 hours): (41.6%)
- Mortality (deaths) 48 hours (12 animals per group, EGF 25 μg/ml, orofacial mask twice daily): 5
- Arterial pH [1]: 7.12 ± 0.1
- Arterial saturation [1]: 76 ± 8.3
- Inflammatory cells per ml [2]: 2.2 × 10^3
- Red blood cells per ml [2]: 5.0 × 10^2
- Total phospholipids per g of lung tissue [2]: 0.000241 g
